# According to the Human Domainome abundance scans (Beltran et al. 2025):
# ± gives the uncertainty stated by the source.
# Assay: abundance fitness (aPCA) (normalised: wild type 0, dead -1); higher = more abundant; growth selection in yeast, the domain comes from the species named
# Settings: Homo sapiens
row,Substance,abundance fitness
1,"Lipoamide acyltransferase component of branched-chain alpha-keto acid dehydrogenase complex, mitochondrial I186T, P11182",-0.484 ± 0.091
2,"Lipoamide acyltransferase component of branched-chain alpha-keto acid dehydrogenase complex, mitochondrial I186V, P11182",-0.046 ± 0.046
3,"Lipoamide acyltransferase component of branched-chain alpha-keto acid dehydrogenase complex, mitochondrial I186W, P11182",-1.05 ± 0.094
4,"Lipoamide acyltransferase component of branched-chain alpha-keto acid dehydrogenase complex, mitochondrial I200A, P11182",-0.66 ± 0.048
5,"Lipoamide acyltransferase component of branched-chain alpha-keto acid dehydrogenase complex, mitochondrial I200C, P11182",-0.589 ± 0.062
6,"Lipoamide acyltransferase component of branched-chain alpha-keto acid dehydrogenase complex, mitochondrial I200D, P11182",-0.567 ± 0.21
7,"Lipoamide acyltransferase component of branched-chain alpha-keto acid dehydrogenase complex, mitochondrial I200E, P11182",-0.558 ± 0.072
8,"Lipoamide acyltransferase component of branched-chain alpha-keto acid dehydrogenase complex, mitochondrial I200F, P11182",-0.76 ± 0.097
9,"Lipoamide acyltransferase component of branched-chain alpha-keto acid dehydrogenase complex, mitochondrial I200G, P11182",-0.667 ± 0.045
10,"Lipoamide acyltransferase component of branched-chain alpha-keto acid dehydrogenase complex, mitochondrial I200H, P11182",-0.678 ± 0.089
11,"Lipoamide acyltransferase component of branched-chain alpha-keto acid dehydrogenase complex, mitochondrial I200L, P11182",-0.334 ± 0.043
12,"Lipoamide acyltransferase component of branched-chain alpha-keto acid dehydrogenase complex, mitochondrial I200M, P11182",-0.563 ± 0.061
13,"Lipoamide acyltransferase component of branched-chain alpha-keto acid dehydrogenase complex, mitochondrial I200N, P11182",-0.711 ± 0.28
14,"Lipoamide acyltransferase component of branched-chain alpha-keto acid dehydrogenase complex, mitochondrial I200P, P11182",-0.483 ± 0.05
15,"Lipoamide acyltransferase component of branched-chain alpha-keto acid dehydrogenase complex, mitochondrial I200Q, P11182",-0.643 ± 0.07
16,"Lipoamide acyltransferase component of branched-chain alpha-keto acid dehydrogenase complex, mitochondrial I200R, P11182",-0.764 ± 0.045
17,"Lipoamide acyltransferase component of branched-chain alpha-keto acid dehydrogenase complex, mitochondrial I200S, P11182",-0.76 ± 0.042
18,"Lipoamide acyltransferase component of branched-chain alpha-keto acid dehydrogenase complex, mitochondrial I200T, P11182",-0.625 ± 0.06

row,Substance,abundance fitness
1,"Lipoamide acyltransferase component of branched-chain alpha-keto acid dehydrogenase complex, mitochondrial I200V, P11182",-0.021 ± 0.039
2,"Lipoamide acyltransferase component of branched-chain alpha-keto acid dehydrogenase complex, mitochondrial I200W, P11182",-0.852 ± 0.063
3,"Lipoamide acyltransferase component of branched-chain alpha-keto acid dehydrogenase complex, mitochondrial I205A, P11182",-0.356 ± 0.041
4,"Lipoamide acyltransferase component of branched-chain alpha-keto acid dehydrogenase complex, mitochondrial I205C, P11182",-0.16 ± 0.052
5,"Lipoamide acyltransferase component of branched-chain alpha-keto acid dehydrogenase complex, mitochondrial I205E, P11182",-0.289 ± 0.047
6,"Lipoamide acyltransferase component of branched-chain alpha-keto acid dehydrogenase complex, mitochondrial I205G, P11182",-0.359 ± 0.037
7,"Lipoamide acyltransferase component of branched-chain alpha-keto acid dehydrogenase complex, mitochondrial I205H, P11182",-0.408 ± 0.064
8,"Lipoamide acyltransferase component of branched-chain alpha-keto acid dehydrogenase complex, mitochondrial I205K, P11182",-0.302 ± 0.052
9,"Lipoamide acyltransferase component of branched-chain alpha-keto acid dehydrogenase complex, mitochondrial I205L, P11182",-0.086 ± 0.037
10,"Lipoamide acyltransferase component of branched-chain alpha-keto acid dehydrogenase complex, mitochondrial I205M, P11182",-0.28 ± 0.054
11,"Lipoamide acyltransferase component of branched-chain alpha-keto acid dehydrogenase complex, mitochondrial I205N, P11182",-0.551 ± 0.11
12,"Lipoamide acyltransferase component of branched-chain alpha-keto acid dehydrogenase complex, mitochondrial I205Q, P11182",-0.302 ± 0.048
13,"Lipoamide acyltransferase component of branched-chain alpha-keto acid dehydrogenase complex, mitochondrial I205R, P11182",-0.343 ± 0.035
14,"Lipoamide acyltransferase component of branched-chain alpha-keto acid dehydrogenase complex, mitochondrial I205S, P11182",-0.332 ± 0.05
15,"Lipoamide acyltransferase component of branched-chain alpha-keto acid dehydrogenase complex, mitochondrial I205T, P11182",-0.337 ± 0.057
16,"Lipoamide acyltransferase component of branched-chain alpha-keto acid dehydrogenase complex, mitochondrial I205V, P11182",0.028 ± 0.042
17,"Lipoamide acyltransferase component of branched-chain alpha-keto acid dehydrogenase complex, mitochondrial I205W, P11182",-0.629 ± 0.056
